Here are results for two molecules from PMC12241633, “Irinotecan alleviates chemoresistance to anthracyclines through the inhibition of AARS1-mediated BLM lactylation and homologous recombination repair” (Signal Transduction and Targeted Therapy, 2025).

The Kd is the constant that tells how readily two partners part at equilibrium. Higher therefore signals weaker binding.

This assay has as its target T1, purified human MIB1 protein (human, UniProt Q86YT6 1-1006).
T1 construct: MIB1, human; source: E. coli BL21 (DE3), pET28a-sumo, purified (AKTA pure chromatography)
As to the kind of experiment: SPR; Biacore T200, CM5 chip, amine coupling in 10 mM sodium acetate pH 4.0 to 5000 RU, 25 °C, running buffer PBS, 0.05% Tween-20, 1% DMSO; multicycle kinetics, 1:1 Langmuir fit; which of the two proteins was immobilised is not stated. To be noted: both partners purified.

T1 sequence (Q86YT6 whole entry): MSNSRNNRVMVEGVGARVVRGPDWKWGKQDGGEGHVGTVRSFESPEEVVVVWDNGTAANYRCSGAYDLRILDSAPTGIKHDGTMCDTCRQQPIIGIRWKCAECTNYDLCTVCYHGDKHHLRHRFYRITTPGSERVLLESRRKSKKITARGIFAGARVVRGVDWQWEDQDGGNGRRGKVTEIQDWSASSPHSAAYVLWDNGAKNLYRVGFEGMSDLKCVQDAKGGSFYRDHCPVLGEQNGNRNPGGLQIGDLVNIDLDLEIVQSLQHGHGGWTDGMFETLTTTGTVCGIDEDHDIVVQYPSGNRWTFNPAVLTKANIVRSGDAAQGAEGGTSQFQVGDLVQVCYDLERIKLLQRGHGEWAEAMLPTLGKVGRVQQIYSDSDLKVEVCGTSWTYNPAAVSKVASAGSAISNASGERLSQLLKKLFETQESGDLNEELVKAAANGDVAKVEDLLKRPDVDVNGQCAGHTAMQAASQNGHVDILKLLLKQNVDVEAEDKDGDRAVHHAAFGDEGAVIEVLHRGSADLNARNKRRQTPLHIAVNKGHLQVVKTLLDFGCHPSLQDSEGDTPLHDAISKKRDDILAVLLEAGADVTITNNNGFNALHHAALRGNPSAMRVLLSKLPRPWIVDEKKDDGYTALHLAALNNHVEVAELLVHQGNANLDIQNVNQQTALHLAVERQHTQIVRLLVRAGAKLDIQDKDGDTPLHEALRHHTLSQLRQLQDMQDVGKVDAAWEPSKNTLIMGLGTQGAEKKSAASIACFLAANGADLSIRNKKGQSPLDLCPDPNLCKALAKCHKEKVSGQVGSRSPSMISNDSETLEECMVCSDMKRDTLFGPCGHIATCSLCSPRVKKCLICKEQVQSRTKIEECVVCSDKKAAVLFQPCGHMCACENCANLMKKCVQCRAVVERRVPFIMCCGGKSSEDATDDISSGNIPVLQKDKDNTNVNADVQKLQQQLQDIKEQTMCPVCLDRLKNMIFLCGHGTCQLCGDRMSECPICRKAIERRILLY

B1: purified human BLM-K24R protein (natural protein)
chain: not shown
notes: BLM, human, K24R; also called K24R BLM; BLM-K24R mutant; source: E. coli BL21 (DE3), pET28a-sumo, purified (AKTA pure chromatography)
Consider B1, for which binding was characterised by a dissociation constant (Kd) of 0.0268 µM.

B2: purified human BLM-WT protein (natural protein)
chain: not shown
notes: BLM, human; also called WT BLM; source: E. coli BL21 (DE3), pET28a-sumo, purified (AKTA pure chromatography)
Regarding B2, the Kd is 0.121 µM. Against the preceding molecule, the Kd is about 4.5-fold higher.
